# Measurements: the supplement of paper PMC10065799, “High-throughput profiling of sequence recognition by tyrosine kinases and SH2 domains using bacterial peptide display” (eLife, 2023)
# Tests used:
# [1] = system: AncSZ; assay: phosphorylation enrichment, bacterial display (enrichment ratio); higher = better substrate or ligand; peptides without Tyr show the background
# [2] = molecular target: EPHB1 (UniProt P54762); assay: as above
# [3] = molecular target: EPHB2 (UniProt P29323); assay: as above
# EPHB2, sequence (P29323 whole entry, looked up): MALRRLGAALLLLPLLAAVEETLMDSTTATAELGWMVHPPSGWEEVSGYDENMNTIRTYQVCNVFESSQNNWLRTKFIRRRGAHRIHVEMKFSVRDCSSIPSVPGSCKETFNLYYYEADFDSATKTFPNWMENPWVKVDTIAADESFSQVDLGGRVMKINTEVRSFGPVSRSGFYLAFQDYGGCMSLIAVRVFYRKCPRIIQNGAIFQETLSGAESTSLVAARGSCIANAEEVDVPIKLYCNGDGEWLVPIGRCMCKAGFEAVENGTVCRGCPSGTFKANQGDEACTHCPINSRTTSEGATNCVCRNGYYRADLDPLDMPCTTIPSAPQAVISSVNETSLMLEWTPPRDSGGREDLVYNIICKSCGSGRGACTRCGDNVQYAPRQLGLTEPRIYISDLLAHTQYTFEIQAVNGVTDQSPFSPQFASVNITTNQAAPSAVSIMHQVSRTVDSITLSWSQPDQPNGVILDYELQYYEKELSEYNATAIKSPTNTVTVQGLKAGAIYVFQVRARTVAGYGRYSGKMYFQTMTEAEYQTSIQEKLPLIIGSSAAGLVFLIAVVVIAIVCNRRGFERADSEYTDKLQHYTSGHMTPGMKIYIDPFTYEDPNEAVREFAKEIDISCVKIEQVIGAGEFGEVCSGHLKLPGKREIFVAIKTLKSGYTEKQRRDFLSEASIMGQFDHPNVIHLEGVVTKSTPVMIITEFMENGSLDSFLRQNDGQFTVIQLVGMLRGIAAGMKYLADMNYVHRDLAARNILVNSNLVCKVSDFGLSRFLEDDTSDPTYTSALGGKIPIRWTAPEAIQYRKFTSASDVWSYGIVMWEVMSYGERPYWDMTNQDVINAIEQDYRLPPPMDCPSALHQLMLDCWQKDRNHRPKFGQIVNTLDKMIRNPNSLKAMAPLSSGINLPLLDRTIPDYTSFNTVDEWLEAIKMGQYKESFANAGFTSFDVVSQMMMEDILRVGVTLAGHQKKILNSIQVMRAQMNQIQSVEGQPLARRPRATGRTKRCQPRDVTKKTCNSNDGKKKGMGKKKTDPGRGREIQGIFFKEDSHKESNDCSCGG
# [4] = molecular target: FGFR1 (UniProt P11362); assay: as above
# [5] = molecular target: FGFR3 (UniProt P22607); assay: as above
# FGFR3, sequence (P22607 whole entry, looked up): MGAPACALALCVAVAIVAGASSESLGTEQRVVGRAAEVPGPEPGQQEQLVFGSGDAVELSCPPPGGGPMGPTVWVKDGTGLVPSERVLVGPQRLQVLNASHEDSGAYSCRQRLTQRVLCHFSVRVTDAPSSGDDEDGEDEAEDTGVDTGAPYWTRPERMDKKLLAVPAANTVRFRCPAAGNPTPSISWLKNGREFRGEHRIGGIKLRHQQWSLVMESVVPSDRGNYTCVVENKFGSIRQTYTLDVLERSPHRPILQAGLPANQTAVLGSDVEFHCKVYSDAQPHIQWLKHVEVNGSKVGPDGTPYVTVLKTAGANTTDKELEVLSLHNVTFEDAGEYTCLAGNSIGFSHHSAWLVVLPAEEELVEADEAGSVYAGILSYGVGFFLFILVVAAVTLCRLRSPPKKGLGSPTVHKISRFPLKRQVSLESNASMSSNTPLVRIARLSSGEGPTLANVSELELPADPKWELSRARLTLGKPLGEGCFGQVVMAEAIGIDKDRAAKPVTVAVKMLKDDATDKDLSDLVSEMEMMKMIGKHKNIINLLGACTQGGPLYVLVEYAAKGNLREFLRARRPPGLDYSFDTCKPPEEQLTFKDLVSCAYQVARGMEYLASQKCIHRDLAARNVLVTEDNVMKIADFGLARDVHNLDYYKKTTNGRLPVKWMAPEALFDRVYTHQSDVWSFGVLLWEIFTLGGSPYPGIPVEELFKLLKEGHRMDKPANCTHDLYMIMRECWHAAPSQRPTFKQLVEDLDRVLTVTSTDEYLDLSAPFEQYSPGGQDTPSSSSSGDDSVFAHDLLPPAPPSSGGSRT
# [6] = system: Fer (mouse); assay: as above
# [7] = molecular target: Fes (UniProt P07332); assay: as above
# Fes, sequence (P07332 whole entry, looked up): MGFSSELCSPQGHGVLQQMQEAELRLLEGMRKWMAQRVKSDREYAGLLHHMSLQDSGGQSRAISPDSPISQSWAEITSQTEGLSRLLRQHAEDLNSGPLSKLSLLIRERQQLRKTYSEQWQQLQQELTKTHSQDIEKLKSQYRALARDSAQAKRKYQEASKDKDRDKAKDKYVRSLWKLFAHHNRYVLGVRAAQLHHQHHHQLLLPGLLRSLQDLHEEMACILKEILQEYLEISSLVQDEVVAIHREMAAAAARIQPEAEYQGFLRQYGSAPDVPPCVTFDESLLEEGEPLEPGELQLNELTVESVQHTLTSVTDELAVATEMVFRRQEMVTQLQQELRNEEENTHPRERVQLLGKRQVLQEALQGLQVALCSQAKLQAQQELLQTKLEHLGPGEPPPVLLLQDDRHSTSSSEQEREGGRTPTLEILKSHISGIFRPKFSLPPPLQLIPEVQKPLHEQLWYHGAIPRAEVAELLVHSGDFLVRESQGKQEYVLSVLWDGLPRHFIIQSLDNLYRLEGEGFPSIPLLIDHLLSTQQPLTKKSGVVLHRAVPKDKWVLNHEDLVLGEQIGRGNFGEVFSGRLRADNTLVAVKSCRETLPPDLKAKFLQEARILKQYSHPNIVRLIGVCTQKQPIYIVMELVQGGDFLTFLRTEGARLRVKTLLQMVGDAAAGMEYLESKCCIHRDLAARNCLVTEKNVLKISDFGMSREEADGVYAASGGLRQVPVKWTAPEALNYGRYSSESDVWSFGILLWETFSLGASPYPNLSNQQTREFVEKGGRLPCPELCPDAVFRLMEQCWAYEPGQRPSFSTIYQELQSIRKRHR
# [8] = molecular target: Fyn (UniProt P06241); assay: as above
# Fyn, sequence (P06241 whole entry, looked up): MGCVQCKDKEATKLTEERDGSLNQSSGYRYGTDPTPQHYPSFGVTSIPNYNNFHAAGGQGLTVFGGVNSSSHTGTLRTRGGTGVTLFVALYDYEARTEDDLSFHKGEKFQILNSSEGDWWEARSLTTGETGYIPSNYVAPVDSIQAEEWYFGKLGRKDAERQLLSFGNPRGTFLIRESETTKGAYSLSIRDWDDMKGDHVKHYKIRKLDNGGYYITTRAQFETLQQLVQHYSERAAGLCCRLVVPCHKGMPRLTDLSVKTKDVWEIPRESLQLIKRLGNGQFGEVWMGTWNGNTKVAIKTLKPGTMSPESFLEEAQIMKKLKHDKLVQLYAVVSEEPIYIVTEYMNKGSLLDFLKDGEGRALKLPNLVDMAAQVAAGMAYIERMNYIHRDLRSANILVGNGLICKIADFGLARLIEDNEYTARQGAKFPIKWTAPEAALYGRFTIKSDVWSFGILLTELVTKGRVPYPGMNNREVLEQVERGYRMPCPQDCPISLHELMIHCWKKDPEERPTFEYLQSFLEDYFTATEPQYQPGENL
# [9] = molecular target: Hck (UniProt P08631); assay: as above
# Hck, sequence (P08631 whole entry, looked up): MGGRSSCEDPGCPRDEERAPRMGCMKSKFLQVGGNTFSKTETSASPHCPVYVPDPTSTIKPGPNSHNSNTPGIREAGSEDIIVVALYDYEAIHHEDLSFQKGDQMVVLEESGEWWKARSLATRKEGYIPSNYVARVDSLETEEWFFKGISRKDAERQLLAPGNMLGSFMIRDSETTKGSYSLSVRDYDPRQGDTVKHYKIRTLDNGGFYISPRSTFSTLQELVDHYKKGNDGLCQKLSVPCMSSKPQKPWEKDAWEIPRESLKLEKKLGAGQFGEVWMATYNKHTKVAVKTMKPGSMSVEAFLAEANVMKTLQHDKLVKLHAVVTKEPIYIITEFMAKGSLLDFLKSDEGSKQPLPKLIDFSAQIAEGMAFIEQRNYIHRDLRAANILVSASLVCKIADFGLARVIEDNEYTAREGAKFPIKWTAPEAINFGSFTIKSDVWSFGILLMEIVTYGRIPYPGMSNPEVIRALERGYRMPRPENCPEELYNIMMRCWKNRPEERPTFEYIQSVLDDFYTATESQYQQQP
# [10] = molecular target: Jak2 (UniProt O60674); assay: as above
# [11] = molecular target: MERTK (UniProt Q12866); assay: as above
# MERTK, sequence (Q12866 whole entry, looked up): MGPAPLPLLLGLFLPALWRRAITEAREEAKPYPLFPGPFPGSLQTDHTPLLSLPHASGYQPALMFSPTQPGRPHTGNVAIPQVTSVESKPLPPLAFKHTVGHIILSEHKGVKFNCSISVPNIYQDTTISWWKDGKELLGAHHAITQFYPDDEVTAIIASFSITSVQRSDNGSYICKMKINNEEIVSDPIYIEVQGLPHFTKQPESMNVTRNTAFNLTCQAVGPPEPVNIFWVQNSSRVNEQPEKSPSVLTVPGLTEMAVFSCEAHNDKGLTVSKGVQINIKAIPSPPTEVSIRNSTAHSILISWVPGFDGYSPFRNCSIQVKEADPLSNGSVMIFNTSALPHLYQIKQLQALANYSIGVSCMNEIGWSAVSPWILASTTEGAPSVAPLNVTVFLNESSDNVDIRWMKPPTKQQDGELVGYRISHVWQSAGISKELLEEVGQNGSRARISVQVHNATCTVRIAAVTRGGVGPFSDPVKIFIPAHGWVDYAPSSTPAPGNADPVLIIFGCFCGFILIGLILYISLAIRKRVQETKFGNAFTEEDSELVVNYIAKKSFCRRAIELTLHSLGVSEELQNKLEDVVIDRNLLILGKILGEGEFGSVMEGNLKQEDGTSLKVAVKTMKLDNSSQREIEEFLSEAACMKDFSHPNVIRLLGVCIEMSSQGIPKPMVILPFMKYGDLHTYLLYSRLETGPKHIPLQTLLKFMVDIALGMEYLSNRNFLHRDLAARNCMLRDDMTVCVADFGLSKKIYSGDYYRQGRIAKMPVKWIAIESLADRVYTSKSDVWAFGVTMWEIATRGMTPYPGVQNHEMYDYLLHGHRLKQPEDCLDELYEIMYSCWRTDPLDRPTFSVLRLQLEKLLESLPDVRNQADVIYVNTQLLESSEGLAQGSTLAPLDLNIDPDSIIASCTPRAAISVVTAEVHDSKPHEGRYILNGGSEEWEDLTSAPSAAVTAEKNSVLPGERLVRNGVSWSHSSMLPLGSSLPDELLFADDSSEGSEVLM
# [12] = system: c-Abl (mouse); assay: as above
# [13] = system: c-Src; assay: as above
# [14] = molecular target: Grb2 SH2 (UniProt P62993); assay: SH2 binding enrichment of the phosphorylated peptide, bacterial display (enrichment ratio); higher = better substrate or ligand; peptides without Tyr show the background
# Grb2 SH2, sequence (P62993 whole entry, looked up): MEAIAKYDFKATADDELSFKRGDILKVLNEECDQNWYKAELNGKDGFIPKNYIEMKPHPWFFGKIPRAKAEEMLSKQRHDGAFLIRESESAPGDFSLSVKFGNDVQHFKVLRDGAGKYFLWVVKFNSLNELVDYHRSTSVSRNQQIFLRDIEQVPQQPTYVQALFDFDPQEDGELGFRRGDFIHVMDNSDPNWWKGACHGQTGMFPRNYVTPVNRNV
# [15] = molecular target: SHP2-C SH2; assay: as above
# [16] = molecular target: c-Src SH2; assay: as above
# 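Wherever SH2 binding enrichment of the phosphorylated peptide, bacterial display is given: peptide library displayed on the E. coli surface as eCPX fusions, selected cells deep-sequenced, score is each peptide's frequency after selection divided by its frequency in the input.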
# 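Wherever phosphorylation enrichment, bacterial display is given: 11-residue human phosphosite peptides and single-mutation variants displayed on the E. coli surface, counted by deep sequencing, each peptide's frequency after selection divided by its frequency in the unselected input library; frequency after pTyr selection over input frequency; kinase dosed for 20-30% of maximal phosphorylation in three min.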
Sequence,phosphorylation enrichment [1],phosphorylation enrichment [2],phosphorylation enrichment [3],phosphorylation enrichment [4],phosphorylation enrichment [5],phosphorylation enrichment [6],phosphorylation enrichment [7],phosphorylation enrichment [8],phosphorylation enrichment [9],phosphorylation enrichment [10],phosphorylation enrichment [11],phosphorylation enrichment [12],phosphorylation enrichment [13],SH2 binding enrichment [14],SH2 binding enrichment [15],SH2 binding enrichment [16]
VSYGEYRYRSV [CFTR_Y515_D513G],0.688,0.452,0.416,0.505,0.469,0.442,0.824,5.66,2.04,0.612,0.363,0.605,3.22,0.529,0.369,0.451
VTGWGYRKLRE [F11_Y521_D526E],0.907,0.415,0.455,0.476,0.631,0.508,0.763,0.495,0.407,0.579,0.546,0.588,0.578,0.63,0.375,0.584
VTNHIYTWVDP [DFNB31_Y234],2.57,2.73,1.63,3.77,3.33,10.2,2,4.26,3.06,0.87,7.06,0.711,3.2,1.14,0.956,1.05
VTQEQYELYCE [CBL_Y368],1.75,0.814,0.71,0.622,0.894,0.887,1.32,0.684,0.989,1.17,0.571,0.883,0.892,1.04,0.577,0.625
VVAHQYSFAPD [TNS3_Y601],0.684,0.521,0.353,0.74,0.727,0.401,0.736,0.542,0.515,0.529,0.414,0.504,0.481,0.702,0.657,1.31
VYPATYHPDHW [EFCAB12_Y544],0.554,0.423,0.385,0.564,0.828,0.419,0.662,0.465,0.689,0.639,0.296,0.526,0.436,1.03,0.635,0.53
VYSIDYYRVGG [NTRK2_Y706_T704I],2.29,4.12,3.13,10.9,9.09,3.79,0.836,6.29,3.95,7.33,9.3,0.788,5.1,0.884,1.61,2
VYSSDYFSFVL [USP24_Y2138],2.21,3.74,3.95,9.06,7.74,0.875,1.35,4.46,1.95,5.25,5.03,2.92,4.61,0.798,0.62,0.442
WAAQRYGRELR [BAD_Y110],0.887,0.406,0.433,0.464,0.396,0.398,0.742,0.445,0.476,0.782,0.514,0.599,0.487,0.758,0.583,0.508
WEPFGFAVTRC [PTPRT_Y412_Y412F],1.18,0.702,0.653,0.447,0.845,0.548,1.48,0.409,0.456,1.4,0.399,1,0.409,0.774,0.694,0.368
WFQTKYEELQI [KRT6B_Y360_YF],0.839,0.446,0.488,0.428,0.633,0.46,0.981,0.38,0.417,0.987,0.403,0.651,0.398,0.953,1.12,8.63
WFQTKYEELQV [KRT6B_Y360_I365V_YF],0.915,0.462,0.525,0.478,0.564,0.459,0.94,0.359,0.442,0.788,0.305,0.712,0.329,0.891,1.08,8.95
WGTAEYDSVVA [MAP1A_Y1883],1.4,0.685,0.86,0.583,0.817,1.57,1.24,0.66,1.16,1.18,0.456,0.703,0.819,0.893,0.639,1
WIPIQYPIISE [NOG_Y222],0.782,0.421,0.439,0.394,0.571,0.508,0.807,0.427,0.439,0.622,0.343,0.59,0.354,1.14,1.35,0.807
WQQQSYLYSGI [CTNNB1_Y30_D32Y],1.16,3.97,5.03,1.07,1.03,5.61,1.48,7.05,7.73,1.52,7.49,0.851,5.93,0.972,0.687,1.37
WSISFYPQVIM [CTNS_Y143],1.21,0.586,0.552,0.513,0.805,0.471,1.33,0.354,0.399,1.19,0.301,0.623,0.35,0.883,0.588,0.571

Sequence,phosphorylation enrichment [1],phosphorylation enrichment [2],phosphorylation enrichment [3],phosphorylation enrichment [4],phosphorylation enrichment [5],phosphorylation enrichment [6],phosphorylation enrichment [7],phosphorylation enrichment [8],phosphorylation enrichment [9],phosphorylation enrichment [10],phosphorylation enrichment [11],phosphorylation enrichment [12],phosphorylation enrichment [13],SH2 binding enrichment [14],SH2 binding enrichment [15],SH2 binding enrichment [16]
WSRAMYPDLGP [STARD8_Y330],0.745,0.396,0.397,0.467,0.575,0.435,0.779,0.463,0.463,0.579,0.478,0.52,0.39,1.02,0.933,0.608
WYQTKYEELQV [KRT6B_Y360_I365V],1.11,0.61,0.707,0.521,0.753,0.568,1.28,0.519,0.723,1.02,0.394,0.741,0.452,0.832,0.834,6.2
YDCKWYIPLTD [BCR_Y756],1.47,0.689,0.711,0.839,0.805,0.502,1.41,0.483,0.571,1.68,1.51,0.914,0.69,0.863,0.707,0.597
YDDGKYVYVVT [RPS6KA3_Y488],1.25,0.724,0.669,1.63,1.38,0.811,1.27,1.43,1.04,1.34,0.941,0.768,1.3,0.907,0.531,0.595
YDGGCYEQLFV [MC4R_Y41_S36Y],2.51,1.24,0.968,1.18,1.45,11.4,1.38,2.04,3.08,1.21,1.17,1.01,2.71,0.742,0.623,0.598
YDGKEYDPVEA [MAPRE2_Y167],1.21,0.772,0.637,0.535,0.836,0.621,1.42,0.556,0.567,1.22,0.497,0.935,0.645,0.912,0.502,0.604
YETSHYLASPD [CTNND2_Y1217_P1218L],1.09,0.59,0.767,0.649,0.633,0.685,0.961,0.523,0.554,0.809,0.784,0.821,0.529,1.11,0.675,1.1
YGMQLYQKYMH [GRB14_Y347_N349K],0.844,1.15,2.42,0.572,0.581,2.09,0.694,1.31,2.08,0.561,1.92,0.648,2.29,0.824,0.64,0.548
YKEDPYLVVNP [MCM6_Y810_E806K],1.19,0.405,0.515,1.24,1.09,0.46,1.11,1.04,0.591,1.03,0.455,0.662,1.74,0.829,0.538,0.58
YLEEEYVKAVG [TF_Y674_G671E],1.36,0.629,0.63,0.606,0.893,0.615,1.32,0.491,0.575,1.18,0.454,1.01,0.505,0.75,0.685,0.323
YQLENCCNGGG [INS_Y108_Y108C],0.829,1.05,0.522,0.547,0.621,0.535,0.903,0.689,0.563,0.763,0.601,0.556,0.59,0.747,0.666,0.972
YQQLFYLLQIN [IQGAP2_Y890_T894I],1.57,1.21,0.829,2.23,2.15,0.751,1.81,0.625,0.911,1.67,1.31,1.3,1,1.31,1.28,0.91
YRDALYKFIVD [PHEX_Y250_M253I],1.08,1.97,1.02,0.952,1.38,0.759,1.25,0.623,0.706,1,1.65,0.916,0.638,0.774,0.774,0.683
YRVAGYETQGG [TIA1_Y383],0.436,0.329,0.338,0.399,0.352,0.351,0.646,0.378,0.37,0.392,0.324,0.906,0.295,0.608,0.58,0.391
YSKTQYNQVPR [CXADR_Y318_S323R],0.531,0.315,0.431,0.421,0.532,0.471,0.542,0.319,0.487,0.451,0.514,0.465,0.462,0.974,0.533,0.589
